The text below walks through data of the supplement of paper PMC9170038.

This data set deals with MS2 coat protein. The data set is described as follows: apparent KD of MS2 coat protein; higher = weaker reporter binding. Particulars: Eterna round: R107. The gist of the method: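 Designed RNA switches were transcribed on-chip from Illumina sequencing clusters and titrated with SNAP-549-labelled MS2 coat protein in twofold steps from 0.7 or 1.5 nM up to 3 µM. Each step lasted 0.8–1.5 h at first and 10–20 min by the end, in 100 mM Tris-HCl pH 7.5, 80 mM KCl and 4 mM MgCl2, without or with constant ligand. Apparent KD is the median, for each design, of fits to normalised cluster binding curves.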

Where [1] appears, read: input ligand: theophylline 20 uM.
Where [2] appears, read: input ligand: theophylline 2 mM.
Where [3] appears, read: input ligand: tryptophan 2.4 mM.

On to “AUGCAUAGCGGAAGGAGCGCAAUAGAAUGACAUGAGGAUCACCCAUGUGUGUGAUGUGGGUUGCAGGUAGGUCGCCGAGUGGUAU [Exclusion - Arginine B (Freestyle 2)]”, for which the “apparent KD of MS2 coat protein” value (input ligand: arginine 13.2 mM) came out at 0.084 µM; the “apparent KD of MS2 coat protein” value (input ligand: none) was 0.092 µM; the “apparent KD of MS2 coat protein” value under setting [1] amounted to 0.128 µM; the “apparent KD of MS2 coat protein” value under setting [2] is 0.108 µM; the “apparent KD of MS2 coat protein” value under setting [3] was found to be 0.0905 µM.
Take “UGGUGCCCUGUAUACAUUGUAAUCCUAAUGCGAGGACCGGUACGGCCGCCACUCGUUGCGGAACAUGAGGAUCACCCAUGUAACA [theeternabot_exclusion_MS2_Trp_A_21]”: the “apparent KD of MS2 coat protein” value worked out at 0.017 µM (input ligand: arginine 13.2 mM), 0.0262 µM under setting [1] and 0.032 µM under setting [2].
For “GGUUCCUCAACGGCCGCCACUUACUGGAUUAGUGGACCUACUUGCAACAUGAGGAUCACCCAUGUAAGGACCGGGUUGCUCCCAA [theeternabot_exclusion_MS2_Trp_B_34]”, the “apparent KD of MS2 coat protein” value worked out at 0.0469 µM (input ligand: arginine 13.2 mM), 0.0901 µM under setting [1] and 0.0879 µM under setting [2].
Turning to “ACAUUUAACUGAAGGAGCGUGAUAUUUACAUGAGGAUCACCCAUGUCUUUCAUGAAUAAUUCACAGGUAGGUCGCAGACUAAUGA [JR_ExcArginiB_Sub007]”, the “apparent KD of MS2 coat protein” value (input ligand: arginine 13.2 mM) was 0.0968 µM; the “apparent KD of MS2 coat protein” value (input ligand: none) amounted to 0.116 µM; the “apparent KD of MS2 coat protein” value under setting [1] was 0.159 µM; the “apparent KD of MS2 coat protein” value under setting [2] was determined as 0.158 µM; the “apparent KD of MS2 coat protein” value under setting [3] was determined as 0.129 µM.
The like results for “AAAUAAAACUGACAUACUGACCCAGUGGAAGGAGCGCACGAGGGUGCAGGUAGGUCGCCACAUGAGGAUCACCCAUGUCACGGAA [Esesinonla]” were, in that order, 0.056 µM, 0.0919 µM, 0.135 µM, 0.131 µM and 0.0867 µM.
The like results for “CCCAAAUAGAUCAAAGGAAUUAUACUCGAAGGAGCGUCAUAGUAGGCAGGUAGGUCGCGAGACAUGAGGAUCACCCAUGUAGAGA [sssmullin]” were, in that order, 0.0333 µM, 0.0519 µM, 0.0456 µM, 0.0572 µM and 0.0349 µM.
On to “UGUAUGUGAUCUGAUACCAGAGUUGAUAACCUGAGGAUCACCCUGGUAAAGGCGAAAGCCCUCCCUUGGCAGCAGAUCGCAUACU”, for which the “apparent KD of MS2 coat protein” value (input ligand: arginine 13.2 mM) is 0.121 µM; the “apparent KD of MS2 coat protein” value (input ligand: none) worked out at 0.216 µM; the “apparent KD of MS2 coat protein” value under setting [1] turned out to be 0.207 µM; the “apparent KD of MS2 coat protein” value under setting [2] amounted to 0.0346 µM; the “apparent KD of MS2 coat protein” value under setting [3] came to 0.239 µM.
As for “CUAUAAGUACCGGUCCUCAGAUCCUCAUGACGAGGACCGGUACGGCCGCCACUCGAAACAUGAGGAUCACCCAUGUAAUAAUAUC [Brourdmod13]”, the “apparent KD of MS2 coat protein” value by setting is: (input ligand: arginine 13.2 mM) 0.0186 µM; under setting [1], 0.0434 µM; under setting [2], 0.0441 µM.
The like results for “CCGGAGACCGUGUCAGCGGAAGCAAGAACACGAGGACCGGUACGGCCGCCACUCGAAAGAAGACAUGAGGAUCACCCAUGUCCAU [theeternabot_exclusion_MS2_Trp_A_43]” were, in that order, 0.0105 µM, 0.0151 µM and 0.0138 µM.
On to “UACCGAGAGGGAAGGAGCGCGAUAACAUAACAUGAGGAUCACCCAUGUAAGAAAUUAAUCAUGCAGGUAGGUCGCCCAAGCGGAU [Same State Arginine B GF 2]”, for which the “apparent KD of MS2 coat protein” value is, setting by setting: (input ligand: arginine 13.2 mM) 0.0167 µM; (input ligand: none) 0.0154 µM; under setting [1], 0.0215 µM; under setting [2], 0.0158 µM; under setting [3], 0.0147 µM.
With “GGUGGUGUGACGGAUACCAGCCACCGCGGCAACGCAACAUGAGGAUCACCCAUGUUGGGUGGCCCUUGGCAGCUGUCGUGCGGCG [#1 Same State - Theophylline B Attempt #24 (HarryS)]”, the “apparent KD of MS2 coat protein” value by setting is: (input ligand: arginine 13.2 mM) 0.0401 µM; under setting [1], 0.0912 µM; under setting [3], 0.0539 µM.
Turning to “UUACAUGAGGAUCACCCAUGUCAUAACGAUACCAGAUAGUUAAUGAUCCCUUGGCAGCGUAAUACCUAGACAUUUAAGUCAUAGG [#25 SameState-TheophyllineA]”, the “apparent KD of MS2 coat protein” value stood at 0.0353 µM (input ligand: arginine 13.2 mM), 0.0632 µM under setting [1] and 0.0509 µM under setting [3].
In the case of “AUGGUCGACGAUCUGCGAAAAGCAGAUCGACGAGGACCGGUACGGCCGCCACUCGUGUUUAUUUAACAUGAGGAUCACCCAUGUA [#14Tryptophan A Same State]”, the “apparent KD of MS2 coat protein” value (input ligand: arginine 13.2 mM) was found to be 0.0706 µM, the “apparent KD of MS2 coat protein” value under setting [1] came out at 0.123 µM and the “apparent KD of MS2 coat protein” value under setting [2] stood at 0.142 µM.
In the same order, the values of “CAAAAUUUAACGGCCGCCACUUACUCAUGAGGUAACAACAUGAGGAUCACCCAUGUUUGAGGAUCAAGGACCGGGUUAAAUUUUG [AstrosSSTry#20]” are 0.0266 µM, 0.0339 µM and 0.0307 µM.
Regarding “UAACAUGAGGAUCACCCAUGUUUAGAUGAACGAGGACCGGUACGGCCGCCACUCGAUAAGUGGAAGAAACGAGGGAUUGUAUGAU [Same State Trp A GF2]”, the “apparent KD of MS2 coat protein” value by setting is: (input ligand: arginine 13.2 mM) 0.0141 µM; (input ligand: none) 0.0127 µM; under setting [1], 0.0151 µM; under setting [2], 0.0188 µM; under setting [3], 0.0183 µM.
In the same order, the values of “CACAUGAGGAUCACCCAUGUCUGAACUGAAGGAGCGCUAAACAAGGCAGGUAGGUCGCGGAAUCGUGUGUGCAUAUGCACACGCG [9.V]” are 0.0136 µM, 0.022 µM, 0.0179 µM, 0.0313 µM and 0.0165 µM.
